Measured values: US20240383953A1 (BAYLOR COLLEGE OF MEDICINE, published 2024)

Biological target: the molecule itself
Assay: DSSO chemical crosslinking in HEK 293T cells
Description: Applicant tested if endogenous NANOG could spontaneously assemble in H9 human embryonic stem cells (ESCs) as well as nucleofected NANOG in differentiated HEK 293T mammalian cells.

B1: NANOG ΔWR deletion mutant expressed in HEK 293T cells (other, human, UniProt Q9H9S0 1-305, looked up)
chain: MSVDPACPQSLPCFEASDCKESSPMPVICGPEENYPSLQMSSAEMPHTETVSPLPSSMDLLIQDSPDSSTSPKGKQPTSAEKSVAKKEDKVPVKKQKTRTVFSSTQLCVLNDRFQRQKYLSLQQMQELSNILNLSYKQVKTWFQNQRMKSKRWQKNNWPKNSNGVTQKASAPTYPSLYSSYHQGCLVNPTGNLPMYNCGEESLQSCMQFQPNSPASDLEAALEAAGEGLNVIQQTTRYFSTPQTMDLFLNYSMNMQPEDV
notes: whole, on cells; also called WR mutants
- binding result: no binding
